This passage reports binding result and Kd results from PMC2570500 (EMBO Reports, 2008).

The assay concerns the target N-terminal domain of Saccharomyces cerevisiae Hsp82 (1–210) (Saccharomyces cerevisiae, UniProt P02829 1-210). In words: NMR titration.

Chain of N-terminal domain of Saccharomyces cerevisiae Hsp82 (1–210) (P02829 1-210): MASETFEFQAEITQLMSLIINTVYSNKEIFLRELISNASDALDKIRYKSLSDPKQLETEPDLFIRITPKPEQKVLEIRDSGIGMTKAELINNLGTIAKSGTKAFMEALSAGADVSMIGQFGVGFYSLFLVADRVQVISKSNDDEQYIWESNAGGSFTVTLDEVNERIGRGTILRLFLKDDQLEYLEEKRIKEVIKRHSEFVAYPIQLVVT

B1: CS domain of Arabidopsis SGT1a (149–253), NMR sample (domain or fragment)
chain: TAKYRHEYYQKPEEVVVTVFAKGIPKQNVNIDFGEQILSVVIEVPGEDAYYLQPRLFGKIIPDKCKYEVLSTKIEICLAKADIITWASLEHGKGPAVLPKPNVSS
In the case of B1, the binding result is “binds”.

B2: CS domain of S. cerevisiae Sgt1 (176–290) (domain or fragment)
chain: ETAPQESPKFKIDWYQSSTSVTISLFTVNLPESKEQVNIYISPNDRRTLSISYQVPKSGSEFQYNAKLSHEVDPKAVSLKIFPKKLEITLSKIDSTQWKKLEEDILTESSRLSDE
One may read the Kd as the equilibrium constant for the complex coming apart. A low value points to a tighter complex. B2: the Kd amounted to 27 ± 3 µM.
